We go through 40 sequences from the nanobody polyreactivity screen of Harvey et al. (2022).

A short description of this series: yeast display, Sf9 membrane polyspecificity reagent, FACS + sequencing; frameworks hold sequencing errors. The essentials:
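Synthetic nanobody libraries on Saccharomyces cerevisiae BJ5465 were galactose-induced for 36–48 hours, stained 1 hour at 4 °C with 10% biotinylated, detergent-solubilized Sf9 membrane reagent and enriched on streptavidin microbeads. FACS then separated cells into low and high (top ~1%) gates by anti-HA (expression) and streptavidin (reagent binding) fluorescence. Genes were colony-PCR amplified, MiSeq 2 × 250 sequenced and CDR-length filtered. A clone's polyreactivity label is that of its gate of origin.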
Regarding “QVQLVESGGGLVQAGGSLRLSCAASGSIFGYNAMGWYRPAPGKERELVAAISRSGGSTYYADSVKGRFTISRDNAKNTVYLQMNSLKPEDTAVSYCATGYYGYRYGYWGQGTQVTVSS”, the “polyreactivity (PSR sort gate)” value is “high polyreactivity”.

For “QVQLVESGGGLVQAGGSLRLSCAASGSIFGYNAMGWYRQAPGKERELVADISSGDSTNYADSVKGRFTISRDNAKNTVYLQMNSLKPEDTAVYYCAADFTYQGSSANDYWGQGTQVTVSS”, the “polyreactivity (PSR sort gate)” value is reported as “low polyreactivity”.

For “QVQLVESGGGLVQAGGSLRLSCAASGSIFGYNAMGWYRQAPGKERELVAVINASGASTYYADSVKGRFTISRDNAKNTVYLQMNSLKPEDTAVYYCAKDPFPFPGGDYWGQGTQVTVSS”, the “polyreactivity (PSR sort gate)” value was “low polyreactivity”.

Turning to “QVQLVESGGGLVQAGGSLRLSCAASGSIFGYNAMGWYRQAPGKESELVAAISSSGGRTYYADSVKGRFTNSRDNAKNTVYLQMNSLKPEDTAVYYCAALGLYGDYLWYDYWGQGTQVTVSS”, the “polyreactivity (PSR sort gate)” value is recorded as “high polyreactivity”.

For “QVQLVESGGGLVQAGGSLRLSCAASGSIFGYNAMGWYRQAPGKETELVAVITRSDGSTYYADSVKGRFTISRDNAKNTVYLQMNSLKPVDTAVYYCNAETHVYYWGVVIYEYNYWGQGTQVTVSS”, the “polyreactivity (PSR sort gate)” value is on record as “low polyreactivity”.

Turning to “QVQLVESGGGLVQAGGSLRLSCAASGSIFGYNVMGWYRQAPGKERELVAAITVNGGRTYYADSVKGRFTISRDNAKNTVYLQINSLKAEDTAVYYCAARVTGTQRSGYYWGQGTQVTVSS”, the “polyreactivity (PSR sort gate)” value is “high polyreactivity”.

With “QVQLVESGGGLVQAGGSLRLSCAASGSIFGYYAMGCYRQAPGKERELDAAISASGGSTYYADSVKGRFTISRDNAKITVYFHMNSLKPEDTAVYYCAAVRSVTYIWARYPYGLEYCGQGTQVTVSS”, the “polyreactivity (PSR sort gate)” value is “high polyreactivity”.

With “QVQLVESGGGLVQAGGSLRLSCAASGSIFGYYAMGWSRQAPGKERELVAAISASGGSTYYADSVKGRFTISRDNAKNTVYLQMNSLKPEDTAVYYCAKVDWEQGFWVEYDHYDYWGQGTQVTVSS”, the “polyreactivity (PSR sort gate)” value is recorded as “high polyreactivity”.

Take “QVQLVESGGGLVQAGGSLRLSCAASGSIFGYYAMGWYRKAPGKERELVAAISWSDGSTYYADSVKGRFTISRDNAKNTVYLQMNSLNPEDTAVYYCAARFTPYITSDDGHYDYWGQGTQVTVSS”: the “polyreactivity (PSR sort gate)” value is “low polyreactivity”.

As to “QVQLVESGGGLVQAGGSLRLSCAASGSIFGYYAMGWYRPATGKEREFVAAITSSGGSTYYADSVKGRFTISRDNAKNTVYLQMNSLKPEDTAVYYCNAGAWQLYWYRYEYWGQGTQVTVSS”, the “polyreactivity (PSR sort gate)” value was “high polyreactivity”.

For the sequence “QVQLVESGGGLVQAGGSLRLSCAASGSIFGYYAMGWYRQAPGKEREFDADINSRDGGTYYADSVKGRFTISRDNAKNTVYLQMNSLKPEDTAVYYCAAPYYAAWVAVAIEYDYWGQGTQVTVSS”, the “polyreactivity (PSR sort gate)” value is reported as “low polyreactivity”.

In the case of “QVQLVESGGGLVQAGGSLRLSCAASGSIFGYYAMGWYRQAPGKEREFVAAITWNGGSTYYADSVKGRFTISRDNAKNTVYLQMNSLKPEDTAVYYCARTSYARYRNGWTYDHWGQGTQVTVSS”, the “polyreactivity (PSR sort gate)” value is on record as “low polyreactivity”.

On to “QVQLVESGGGLVQAGGSLRLSCAASGSIFGYYAMGWYRQAPGKERELVAAISGSGGSTYYADSVKGRFTISRDNAKNTVYLQMNSLKPEDTAVYYCAAAYHGRHYYWGQGTQVTVSS”, for which the “polyreactivity (PSR sort gate)” value is given as “high polyreactivity”.

Consider “QVQLVESGGGLVQAGGSLRLSCAASGSIFGYYAMGWYRQAPGKERELVAAISWSGGSTYYADSVKGRFTISRDNAKNTVYLQMNSLKPEDTAVYYCAATSRGNDSQKYYYWGQGTQVTVSS”, for which the “polyreactivity (PSR sort gate)” value was “low polyreactivity”.

Consider “QVQLVESGGGLVQAGGSLRLSCAASGSIFGYYAMGWYRQAPGKERELVAAITSDGSTYYADSVKGRFTITRDNAKNTVNLQMNSLKPEDTAVYYCAAYSWYYTSRYDYWGQGTQVTVSS”, for which the “polyreactivity (PSR sort gate)” value is “low polyreactivity”.

“QVQLVESGGGLVQAGGSLRLSCAASGSIFGYYAMGWYRQAPGKERELVARIRSTGSTNYADSVKGRFTISRDNAKNTVYLQMNSLKPEDTAVFYCNKLAHRKGGYWGQGTQVTVSS”: the “polyreactivity (PSR sort gate)” value is on record as “high polyreactivity”.

Regarding “QVQLVESGGGLVQAGGSLRLSCAASGSIFGYYAMGWYRQAPGKERELVASISWSGTSTYYADSVKGRFTISRDNAKNTVYLQMNSLKPEDTAVYYCATKGLFTNSPLYVSAYDYWGQGTQVTVSS”, the “polyreactivity (PSR sort gate)” value is given as “low polyreactivity”.

Turning to “QVQLVESGGGLVQAGGSLRLSCAASGSIFGYYAMGWYRQAPGKERELVATISNDGSTKYADSVKGRFTISRDNAKNTVYLQMNSLKPEDSAVYYCAADSARHGRDTYQPEYRNDYWGQGTQVTVSS”, the “polyreactivity (PSR sort gate)” value is listed as “low polyreactivity”.

In the case of “QVQLVESGGGLVQAGGSLRLSCAASGSIFGYYDMGWYRQAPGKERELVAAISSRGGITYYADSVKGRFTISRDHAKNTVYLQMNSLKPEDTAVYYCAAYAYFHRREGYWVQGTQVTVSS”, the “polyreactivity (PSR sort gate)” value is “high polyreactivity”.

Turning to “QVQLVESGGGLVQAGGSLRLSCAASGSIFGYYGMGWYRQAPGKERELVAAISYRGGYTYYADSVKGRFTISRDNAKNTVSLQMNSLKPEDTAVYYCNAGGRRRIFAHSSTGDYWGQGTQVTVSS”, the “polyreactivity (PSR sort gate)” value was “high polyreactivity”.

Turning to “QVQLVESGGGLVQAGGSLRLSCAASGSIFGYYTMGLYRQAPGKERELVAAITSGGSTNYADSVKGRFTISRDNAKNTVYLQMNSLKPEDTAVYYCAKVSYYPWRYDYWGQGTQVTVSS”, the “polyreactivity (PSR sort gate)” value is on record as “low polyreactivity”.

With “QVQLVESGGGLVQAGGSLRLSCAASGSIFGYYTMGWYRKAPGKERELVAAITSGGSTNYADSVKGRFTISRDNAKNTVYLQMNSLKPEDTAVYYCAKVSYYPWRYDYWGQGTQVTVSS”, the “polyreactivity (PSR sort gate)” value is given as “low polyreactivity”.

“QVQLVESGGGLVQAGGSLRLSCAASGSIFGYYTMGWYRQAPGKEREFVAAISWSGGSTYYADSVKGRFTISRDNAKNTVYLQMTSLKPEDTAVYYCNADVYWEYDYWGQGTQVTVSS”: the “polyreactivity (PSR sort gate)” value is recorded as “low polyreactivity”.

With “QVQLVESGGGLVQAGGSLRLSCAASGSIFGYYTMGWYRQAPGKERELVAAITYSGGSTYYADSVKGRFTISRDNAKNTVYLQMNSLKPEDTAVYYCNAKSAAHRYVRRHDYWGQGTQVTVSS”, the “polyreactivity (PSR sort gate)” value was “low polyreactivity”.

Regarding “QVQLVESGGGLVQAGGSLRLSCAASGSIFGYYTMGWYRQAPGKERELVATISRSGGSTYYADSVKGRFTISRDNAKNTVYLQMNSLKPEDTAVYYCGARSWGGYDSRGYWGQGTQVTVSS”, the “polyreactivity (PSR sort gate)” value was “high polyreactivity”.

Regarding “QVQLVESGGGLVQAGGSLRLSCAASGSIFGYYVMGWDRQAPGKERELVAAITRSGSTYYADSVKGRFTISRDNAKNTVYLQMNSLKPEDTAVYYCAADGSYYWYPHTTYDYWGQGTQVTVSS”, the “polyreactivity (PSR sort gate)” value was “low polyreactivity”.

“QVQLVESGGGLVQAGGSLRLSCAASGSIFHFNAMGWYRQAPGKERELVATITSSGSSTYYADSVKGRFTISRDNAKNTVYLQMNSLKPEDTAVYYCAAGWFWQMDYWGQGTQVTVSS”: the “polyreactivity (PSR sort gate)” value is reported as “low polyreactivity”.

With “QVQLVESGGGLVQAGGSLRLSCAASGSIFHIYMGGYRQAPGKERELVASMSYRGGTTYYADSVKGRFTISRDNAKNTVYLQKNSLKPEDTAVYYCNVHRDFYHYGRYGHMDYWGQGC”, the “polyreactivity (PSR sort gate)” value is listed as “low polyreactivity”.

Regarding “QVQLVESGGGLVQAGGSLRLSCAASGSIFHLYAMGWYRQAPGKEREFVAAISSSGGLTYYADSVKGRFTISRDNAKNTVYLQMNSLKPEDTEVYYCATAEQYGTKLRKVSYQYDYWGQGTQVTVSS”, the “polyreactivity (PSR sort gate)” value is recorded as “low polyreactivity”.

Turning to “QVQLVESGGGLVQAGGSLRLSCAASGSIFHPYAMGWYRQAPGKERELVAAISKSGGNTYYADSVKGRFTISRDNAKNTVYLQMNSLKPEDTAVYYCAALDYWGQGTQLTVSS”, the “polyreactivity (PSR sort gate)” value is on record as “low polyreactivity”.

On to “QVQLVESGGGLVQAGGSLRLSCAASGSIFHPYGMGWYRQAPGKERELVAAITSSGGDKYYADSVKGRFTISRDNAKNTVYLQMNSLKPEDTAVYYCAATGLPGYYAYDYWGQGTQVTVSS”, for which the “polyreactivity (PSR sort gate)” value is “low polyreactivity”.

With “QVQLVESGGGLVQAGGSLRLSCAASGSIFHRYAMGWYRQAPGKERELVAAINRGGSSYADSVKGRFTISLDNAKNTVYLQMNRLNPEDTAVYYCATRNIGRSTGPFYWGYYYWGQGTQVTVSS”, the “polyreactivity (PSR sort gate)” value was “high polyreactivity”.

For the sequence “QVQLVESGGGLVQAGGSLRLSCAASGSIFHSYAMGWYRQAPGKERDFVASITQRVGRTNYADSVKGRFTISRDNAKNTVYLQMNSLKPEDTAVYYFAASYWRLYYRRDYWGQGTQVTVSS”, the “polyreactivity (PSR sort gate)” value is “high polyreactivity”.

Turning to “QVQLVESGGGLVQAGGSLRLSCAASGSIFHTYAMGWYRKAPEKERELVAANTVSGGDTYYADSVKGRFTISRDNEKNTVYLQMNSLKAEDTAVYYCAVDTTTSYTVEYDYWGQGTQVTVSS”, the “polyreactivity (PSR sort gate)” value was “low polyreactivity”.

For “QVQLVESGGGLVQAGGSLRLSCAASGSIFHWNAMGWYRQAPGKERELVAGITTSGGTTYYADSVKGRFTISRDNAKNTVYLQMNSLKPEDTAVYYCAARIIRWRPRWPSYGKYDYWGQGTQVTVSS”, the “polyreactivity (PSR sort gate)” value was “low polyreactivity”.

In the case of “QVQLVESGGGLVQAGGSLRLSCAASGSIFHYNAMGWSRQAPGKERELVAAISRGGSTHYADSVKGRFTISRDNAKNTVYLQMNSLKPEDTAVYYCATVQVVGPWSYRKLDYCGQGTQVTVSS”, the “polyreactivity (PSR sort gate)” value is on record as “high polyreactivity”.

Regarding “QVQLVESGGGLVQAGGSLRLSCAASGSIFHYYAMGWYRQAPGKERELVAAINSSGGSRTYYADSVKGRFTISRDNAKNTVYLQMNSLKPEDTAVYYCAAARDVFLGLQIWYWYGGDYWGQGTQVTVSS”, the “polyreactivity (PSR sort gate)” value is “low polyreactivity”.

Turning to “QVQLVESGGGLVQAGGSLRLSCAASGSIFHYYAMGWYRQAPGKERELVAAISWSGGRTNYADSVKGRFTISRDNAKNTVYLQMKSLKPEDTAVYYCAAGNSFSDRGHRVYFQYYYWGQGTLVTVSS”, the “polyreactivity (PSR sort gate)” value is reported as “high polyreactivity”.

Take “QVQLVESGGGLVQAGGSLRLSCAASGSIFIANAMGWYRQAPGKERELFAAITLNGGSTYYADSVKGRFTISRDNAKNTVYLQMNSLKPEDTAVYYCAADWVWVAPQYWIVEYDYRGQGTQVTVSS”: the “polyreactivity (PSR sort gate)” value is listed as “low polyreactivity”.

For the sequence “QVQLVESGGGLVQAGGSLRLSCAASGSIFIDNAMGWYRQAPGKEREFVAAISKSGTSTYYADSVKGRFTISRDNAKNTVYLQMNSLKPEDTAVYYCAVRRPRPYSNYYYWGQGTQVTVSS”, the “polyreactivity (PSR sort gate)” value is on record as “high polyreactivity”.
